Test results from patent US20210292396A1.

Columns and labels:
Assay in all cases: cell-based or functional assay
[1] = biological target: Env of HIV isolate 0815.v3.c3 (clade ACD) (HIV)
[2] = biological target: Env of HIV isolate 16055-2.3 (clade C) (HIV)
[3] = biological target: Env of HIV isolate 3415.v1.c1 (clade A) (HIV)
[4] = biological target: Env of HIV isolate 3817.v2.c59 (clade CD) (HIV)
[5] = biological target: Env of HIV isolate 620345.c1 (clade AE) (HIV)
[6] = biological target: Env of HIV isolate 6644.v2.c33 (clade C) (HIV)
[7] = biological target: Env of HIV isolate BJOX002000.03.2 (clade BC) (HIV)
[8] = biological target: Env of HIV isolate BS208.B1 (clade A) (HIV)
[9] = biological target: Env of HIV isolate Bal.01 (clade B) (HIV)
[10] = biological target: Env of HIV isolate C2101.c1 (clade AE) (HIV)
[11] = biological target: Env of HIV isolate CNE12 (clade B) (HIV)
[12] = biological target: Env of HIV isolate CNE31 (clade C) (HIV)
[13] = biological target: Env of HIV isolate MS208.A1 (clade A) (HIV)
[14] = biological target: Env of HIV isolate Q168.a2 (clade AD) (HIV)
[15] = biological target: Env of HIV isolate QH0515.01 (clade B) (HIV)
[16] = biological target: Env of HIV isolate QH0692.42 (clade B) (HIV)
[17] = biological target: Env of HIV isolate R1166.C1 (clade AE) (HIV)
[18] = biological target: Env of HIV isolate T33-7 (clade AG) (HIV)
[19] = biological target: Env of HIV isolate TH966.8 (clade AE) (HIV)
[20] = biological target: Env of HIV isolate TH976.17 (clade AE) (HIV)
[21] = biological target: Env of HIV isolate TV1.29 (clade C) (HIV)
[22] = biological target: Env of HIV isolate ZM109.4 (clade C) (HIV)
[23] = biological target: Env of HIV isolate ZM176.66 (clade C) (HIV)
[24] = biological target: Env of HIV isolate ZM53.12 (clade C) (HIV)
[25] = biological target: HIV Env of isolate 0330.v4.c3 (HIV)
[26] = biological target: HIV Env of isolate 231965.c01 (HIV)
[27] = biological target: HIV Env of isolate 269-12 (HIV)
[28] = biological target: HIV Env of isolate 3016.v5.c45 (HIV)
[29] = biological target: HIV Env of isolate 3415.v1.c1 (HIV)
[30] = biological target: HIV Env of isolate 3589.v1.c4 (HIV)
[31] = biological target: HIV Env of isolate 3817.v2.c59 (HIV)
[32] = biological target: HIV Env of isolate 398-F1.F6.20 (HIV)
[33] = biological target: HIV Env of isolate 3988.25 (HIV)
[34] = biological target: HIV Env of isolate 6545.v4.c1 (HIV)
[35] = biological target: HIV Env of isolate 6785.v5.c14 (HIV)
[36] = biological target: HIV Env of isolate 6838.v1.c35 (HIV)
[37] = biological target: HIV Env of isolate 89.6.DG (HIV)
[38] = biological target: HIV Env of isolate A03349M1.vrc4a (HIV)
[39] = biological target: HIV Env of isolate C4118.09 (HIV)
[40] = biological target: HIV Env of isolate CH117.4 (HIV)
[41] = biological target: HIV Env of isolate CH181.12 (HIV)
[42] = biological target: HIV Env of isolate CNE10 (HIV)
[43] = biological target: HIV Env of isolate DJ263.8 (HIV)
[44] = biological target: HIV Env of isolate MS208.A1 (HIV)
[45] = biological target: HIV Env of isolate PVO.04 (HIV)
[46] = biological target: HIV Env of isolate Q461.e2 (HIV)
[47] = biological target: HIV Env of isolate Q842.d12 (HIV)
[48] = biological target: HIV Env of isolate QH0515.01 (HIV)
[49] = biological target: HIV Env of isolate T255-34 (HIV)
[50] = biological target: HIV Env of isolate TH966.8 (HIV)
[51] = biological target: HIV Env of isolate TRO.11 (HIV)
[52] = biological target: HIV Env of isolate TZBD.02 (HIV)
[53] = biological target: HIV Env of isolate UG024.2 (HIV)

With PGT121 (antibody) the IC50, pseudovirus neutralization [1] was 0.0323 mg/L, the IC50, pseudovirus neutralization [2] was 0.312 mg/L and the IC50, pseudovirus neutralization [3] was > 50 mg/L. For the same substance, the IC50, pseudovirus neutralization [4] was 22.2 mg/L, the IC50, pseudovirus neutralization [5] was > 50 mg/L and the IC50, pseudovirus neutralization [6] was 0.037 mg/L. The IC50, pseudovirus neutralization [7] was 0.026 mg/L, the IC50, pseudovirus neutralization [8] was > 50 mg/L and the IC50, pseudovirus neutralization [9] was 0.0113 mg/L. The IC50, pseudovirus neutralization [10] was > 50 mg/L, the IC50, pseudovirus neutralization [11] was 0.0153 mg/L and the IC50, pseudovirus neutralization [12] was 0.654 mg/L. For the same substance, the IC50, pseudovirus neutralization [13] was > 50 mg/L, the IC50, pseudovirus neutralization [14] was > 50 mg/L and the IC50, pseudovirus neutralization [15] was 2.83 mg/L. The IC50, pseudovirus neutralization [16] was 0.972 mg/L, the IC50, pseudovirus neutralization [17] was > 50 mg/L and the IC50, pseudovirus neutralization [18] was > 50 mg/L. The IC50, pseudovirus neutralization [19] was > 50 mg/L, the IC50, pseudovirus neutralization [20] was > 50 mg/L and the IC50, pseudovirus neutralization [21] was 0.146 mg/L. It also gave an IC50, pseudovirus neutralization [22] of 1.96 mg/L, an IC50, pseudovirus neutralization [23] of 4.1 mg/L and an IC50, pseudovirus neutralization [24] of 0.00267 mg/L. For the same substance, the IC80 [25] was 0.211 mg/L, the IC80, pseudovirus neutralization [26] was > 50 mg/L and the IC80 [27] was 0.627 mg/L. The IC80, pseudovirus neutralization [28] was > 50 mg/L, the IC80 [29] was > 50 mg/L and the IC80 [30] was > 50 mg/L. The IC80, pseudovirus neutralization [31] was > 50 mg/L, the IC80 [32] was 0.0527 mg/L and the IC80 [33] was 0.0287 mg/L. The IC80 [34] was > 50 mg/L, the IC80, pseudovirus neutralization [35] was 0.108 mg/L and the IC80, pseudovirus neutralization [36] was 0.21 mg/L. The IC80 [37] was 0.0783 mg/L, the IC80, pseudovirus neutralization [38] was 0.359 mg/L and the IC80 [39] was > 50 mg/L. For the same substance, the IC80, pseudovirus neutralization [40] was > 50 mg/L, the IC80, pseudovirus neutralization [41] was 0.083 mg/L and the IC80 [42] was 0.048 mg/L. For the same substance, the IC80 [43] was 0.202 mg/L, the IC80 [44] was > 50 mg/L and the IC80 [45] was 0.498 mg/L. For the same substance, the IC80 [46] was > 50 mg/L, the IC80 [47] was 0.0597 mg/L and the IC80 [48] was > 50 mg/L. For the same substance, the IC80 [49] was > 50 mg/L, the IC80 [50] was > 50 mg/L and the IC80 [51] was 0.0583 mg/L. The IC80, pseudovirus neutralization [52] was 0.137 mg/L and the IC80, pseudovirus neutralization [53] was > 50 mg/L.
